From publication PMC10958117, “G-site residue S67 is involved in the fungicide-degrading activity of a tau class glutathione S-transferase from Carica papaya” (The Journal of Biological Chemistry, 2024) come the findings set out here.

Substrate in series [1]: N[C@@H](CCC(=O)N[C@@H](CS)C(=O)NCC(=O)O)C(=O)O
Nature of the series: purified protein, by the assay type. To be noted: pH 7.2; 37.0 °C. Further details: GSH conjugation with chloronitrobenzene substrate, absorbance at 340 nm, Km for glutathione.

Substrate in the series “purified protein”: CN(C)C(=S)SSC(=S)N(C)C
Nature of the series: purified protein. The format is biochemical, Carica papaya. To be noted: G-site; S67 necessary for activity.

B1: TCpGST (Carica papaya) (protein)
chain: MADEVVLLDFWPSPFGMRIRIALAEKGIHYEYKEENLRNKSPLLLQMNPVHKKIPVLIHNGKPICESLIQIQYIDEVWSDKAPLLPSDPYQRAQARFWADYVDKKMYEAGRRVWTTKGEEQEGAKKEFIEILKTLEGELGEKPYFGGESFGYVDLTFIPFYTWFSVYESFGKMSIEAECPKLFSWVKRCLEKESVSKSLPDQDKVYGFVLELRKALGI
notes: wild-type full-length ORF, C-terminal His6, pET-30a, E. coli BL21(DE3)
Usually Km stands for the substrate concentration at which the rate is half of its maximum. For orientation: Vmax means the top rate of the reaction or transport when substrate is in excess. Broadly, the kcat is the number of substrate molecules converted per active site and unit of time at saturation. A word on the kcat/Km: it is the second-order rate constant that governs catalysis at low substrate concentration. B1: in series [1], the Km is 30 ± 8.3 µM, the Vmax came to 552 µM/min, the kcat was 0.197 ± 0.0169 s⁻¹ and the kcat/Km came out at 6550 M⁻¹ s⁻¹.

B2: tau class glutathione S-transferase from Carica papaya (TCpGST) (Carica papaya) (protein)
chain: B1 chain
notes: full-length ORF (657 bp), C-terminal His6, pET-30a, E. coli BL21(DE3), Ni-NTA purified
Consider B2, for which the Km in the series “purified protein” worked out at 148.4 ± 7 µM.
